Measured values taken from article PMC7865074, “Role of PDZ-binding motif from West Nile virus NS5 protein on viral replication” (Scientific Reports, 2021).
Ends that are not written are not given here.

T1: biotinylated WNV NS5 PBM peptide (West Nile virus, also: biotinyl group, end not given here)
T1 construct: bait of the holdup assay; also called 13-mer peptide; source: synthetic peptide (solid phase, Fmoc; Proteogenix)
T1 peptide: RYEDTTLVEDTVL


Target: T1, biotinylated WNV NS5 PBM peptide
Experiment: holdup assay (automated high-throughput chromatography); biotinylated NS5 PBM peptide as bait against 259 human PDZ domains expressed in E. coli; read-out binding intensity (BI), mean of replicates; BI threshold 0.2 for a significant interaction

| Binder | BI (holdup binding intensity) |
| --- | --- |
| Na(+)/H(+) exchange regulatory cofactor NHE-RF2, PDZ domain 1 (holdup construct) (domain or fragment, human, UniProt Q15599 11-90, looked up, also called NHERF2_1; source: E. coli, PDZome V.2 library, high-throughput expression) LCRLVRGEQGYGFHLHGEKGRRGQFIRRVEPGSPAEAAALRAGDRLVEVNGVNVEGETHHQVVQRIKAVEGQTRLLVVDQ | 0.21 |
| Microtubule-associated serine/threonine-protein kinase 1, PDZ domain (holdup construct) (domain or fragment, human, UniProt Q9Y2H9 967-1055, looked up, also called MAST1; source: E. coli, PDZome V.2 library, high-throughput expression) PITIQRSGKKYGFTLRAIRVYMGDTDVYSVHHIVWHVEEGGPAQEAGLCAGDLITHVNGEPVHGMVHPEVVELILKSGNKVAVTTTPFE | 0.52 |
| Membrane-associated guanylate kinase, WW and PDZ domain-containing protein 1, PDZ domain 2 (holdup construct) (domain or fragment, human, UniProt Q96QZ7 472-554, looked up, also called MAGI1_2; source: E. coli, PDZome V.2 library, high-throughput expression) HTKLRKSSRGFGFTVVGGDEPDEFLQIKSLVLDGPAALDGKMETGDVIVSVNDTCVLGHTHAQVVKIFQSIPIGASVDLELCR | 0.55 |
| Na(+)/H(+) exchange regulatory cofactor NHE-RF2, PDZ domain 2 (holdup construct) (domain or fragment, human, UniProt Q15599 150-230, looked up, also called NHERF2_2; source: E. coli, PDZome V.2 library, high-throughput expression) RLCHLRKGPQGYGFNLHSDKSRPGQYIRSVDPGSPAARSGLRAQDRLIEVNGQNVEGLRHAEVVASIKAREDEARLLVVDP | 0.74 |
| T-lymphoma invasion and metastasis-inducing protein 2, PDZ domain (holdup construct) (domain or fragment, human, UniProt Q8IVF5 890-976, looked up, also called TIAM2; source: E. coli, PDZome V.2 library, high-throughput expression) DVQLTKTGSVCDFGFAVTAQVDERQHLSRIFISDVLPDGLAYGEGLRKGNEIMTLNGEAVSDLDLKQMEALFSEKSVGLTLIARPPD | < 0.15 |
| Membrane-associated guanylate kinase, WW and PDZ domain-containing protein 2, PDZ domain 2 (holdup construct) (domain or fragment, human, UniProt Q86UL8 426-510, looked up, also called MAGI2_2; source: E. coli, PDZome V.2 library, high-throughput expression) STTLKKSNMGFGFTIIGGDEPDEFLQVKSVIPDGPAAQDGKMETGDVIVYINEVCVLGHTHADVVKLFQSVPIGQSVNLVLCRGY | 0.38 |
| PDZ and LIM domain protein 1, PDZ domain (holdup construct) (domain or fragment, human, UniProt O00151 3-85, looked up, also called PDLIM1; source: E. coli, PDZome V.2 library, high-throughput expression) TQQIDLQGPGPWGFRLVGGKDFEQPLAISRVTPGSKAALANLCIGDVITAIDGENTSNMTHLEAQNRIKGCTDNLTLTVARSE | < 0.15 |
| 26S proteasome non-ATPase regulatory subunit 9, PDZ domain (holdup construct) (domain or fragment, human, UniProt O00233 108-195, looked up, also called PSMD9; source: E. coli, PDZome V.2 library, high-throughput expression) QARDMAEAHKEAMSRKLGQSESQGPPRAFAKVNSISPGSPASIAGLQVDDEIVEFGSVNTQNFQSLHNIGSVVQHSEGKPLNVTVIRR | < 0.15 |
| SH3 and multiple ankyrin repeat domains protein 3, PDZ domain (holdup construct) (domain or fragment, human, UniProt Q9BYB0 646-740, looked up, also called SHANK3; source: E. coli, PDZome V.2 library, high-throughput expression) VAVLQKRDHEGFGFVLRGAKAETPIEEFTPTPAFPALQYLESVDVEGVAWRAGLRTGDFLIEVNGVNVVKVGHKQVVALIRQGGNRLVMKVVSVT | 0.39 |
| Beta-1-syntrophin, PDZ domain (holdup construct) (domain or fragment, human, UniProt Q13884 112-195, looked up, also called SNTB1; source: E. coli, PDZome V.2 library, high-throughput expression) GVKVLKQELGGLGISIKGGKENKMPILISKIFKGLAADQTQALYVGDAILSVNGADLRDATHDEAVQALKRAGKEVLLEVKYMR | 0.22 |
| Protein scribble homolog, PDZ domain 3 (holdup construct) (domain or fragment, human, UniProt Q14160 1004-1093, looked up, also called SCRIB_3; source: E. coli, PDZome V.2 library, high-throughput expression) EIRLPRAGGPLGLSIVGGSDHSSHPFGVQEPGVFISKVLPRGLAARSGLRVGDRILAVNGQDVRDATHQEAVSALLRPCLELSLLVRRDP | 0.33 |
| Membrane-associated guanylate kinase, WW and PDZ domain-containing protein 3, PDZ domain 2 (holdup construct) (domain or fragment, human, UniProt Q5TCQ9 410-492, looked up, also called MAGI3 _2; source: E. coli, PDZome V.2 library, high-throughput expression) RASLKKSTMGFGFTIIGGDRPDEFLQVKNVLKDGPAAQDGKIAPGDVIVDINGNCVLGHTHADVVQMFQLVPVNQYVNLTLCR | 0.61 |
| Zona Occludens 3; Tight Junction Protein 3, PDZ domain 2 (holdup construct) (domain or fragment, human, UniProt O95049 195-272, looked up, also called TJP3_2; source: E. coli, PDZome V.2 library, high-throughput expression) SVLVKRRDSEEFGVKLGSQIFIKHITDSGLAARHRGLQEGDLILQINGVSSQNLSLNDTRRLIEKSEGKLSLLVLRDR | 0.23 |
| Na(+)/H(+) exchange regulatory cofactor NHE-RF1, PDZ domain 1 (holdup construct) (domain or fragment, human, UniProt O14745 14-94, looked up, source: E. coli, PDZome V.2 library, high-throughput expression) LCCLEKGPNGYGFHLHGEKGKLGQYIRLVEPGSPAEKAGLLAGDRLVEVNGENVEKETHQQVVSRIRAALNAVRLLVVDPE | 0.68 |
| Regulating synaptic membrane exocytosis protein 2, PDZ domain (holdup construct) (domain or fragment, human, UniProt Q9UQ26 668-754, looked up, also called RIMS2; source: E. coli, PDZome V.2 library, high-throughput expression) DGSVPRDSGAMLGLKVVGGKMTESGRLCAFITKVKKGSLADTVGHLRPGDEVLEWNGRLLQGATFEEVYNIILESKPEPQVELVVSR | < 0.15 |
| PDZ domain-containing protein 4, PDZ domain (holdup construct) (domain or fragment, human, UniProt Q76G19 130-214, looked up, also called PDZD4; source: E. coli, PDZome V.2 library, high-throughput expression) EVELYKSSHRDKLGLMVCYRTDDEEDLGIYVGEVNPNSIAAKDGRIREGDRIIQINGVDVQNREEAVAILSQEENTNISLLVARP | < 0.15 |
| Protein scribble homolog, PDZ domain 1 (holdup construct) (domain or fragment, also called SCRIB_1; source: E. coli, PDZome V.2 library, high-throughput expression) not shown | 0.27 |
